# Measured values published in the MegaScale stability set (Tsuboyama et al. 2023).
# B1: 2M8U (parent)
# chain: TKAQVIEAFKVFDRDGNGYVTVDYLRKVLNELGDMMPADEIEEMIYEADPQNSGYVQYETFVGMLFL
# Variants of: B1
# Assay: folding stability dG (cDNA display proteolysis); higher = more stable
# Conditions: PBS, room temperature
row,Variant,folding stability dG
1,TKAQVIEAFKVFDRDGNGYVTVDYLRKVLNPLGDMMPADEIEEMIYEADPQNSGYVQYETFVGMLFL,2.78 kcal/mol
2,TKAQVIEAFKVFDRDGNGYVTVDYLRKVLNWLGDMMPADEIEEMIYEADPQNSGYVQYETFVGMLFL,3.64 kcal/mol
3,TKAQVIEAFKVFDRDGNGYVTVDYLRKVLNYLGDMMPADEIEEMIYEADPQNSGYVQYETFVGMLFL,3.4 kcal/mol
4,TKAQVIEAFKVFDRDGNGYVTVDYLRKVLNDLGDMMPADEIEEMIYEADPQNSGYVQYETFVGMLFL,3.62 kcal/mol
5,TKAQVIEAFKVFDRDGNGYVTVDYLRKVLNKLGDMMPADEIEEMIYEADPQNSGYVQYETFVGMLFL,3.49 kcal/mol
6,TKAQVIEAFKVFDRDGNGYVTVDYLRKVLNHLGDMMPADEIEEMIYEADPQNSGYVQYETFVGMLFL,3.45 kcal/mol
7,TKAQVIEAFKVFDRDGNGYVTVDYLRKVLNNLGDMMPADEIEEMIYEADPQNSGYVQYETFVGMLFL,3.36 kcal/mol
8,TKAQVIEAFKVFDRDGNGYVTVDYLRKVLNMLGDMMPADEIEEMIYEADPQNSGYVQYETFVGMLFL,3.74 kcal/mol
9,TKAQVIEAFKVFDRDGNGYVTVDYLRKVLNTLGDMMPADEIEEMIYEADPQNSGYVQYETFVGMLFL,3.58 kcal/mol
10,TKAQVIEAFKVFDRDGNGYVTVDYLRKVLNVLGDMMPADEIEEMIYEADPQNSGYVQYETFVGMLFL,3.49 kcal/mol
11,TKAQVIEAFKVFDRDGNGYVTVDYLRKVLNQLGDMMPADEIEEMIYEADPQNSGYVQYETFVGMLFL,3.53 kcal/mol
12,TKAQVIEAFKVFDRDGNGYVTVDYLRKVLNRLGDMMPADEIEEMIYEADPQNSGYVQYETFVGMLFL,3.51 kcal/mol
13,TKAQVIEAFKVFDRDGNGYVTVDYLRKVLNILGDMMPADEIEEMIYEADPQNSGYVQYETFVGMLFL,3.66 kcal/mol
14,TKAQVIEAFKVFDRDGNGYVTVDYLRKVLNALGDMMPADEIEEMIYEADPQNSGYVQYETFVGMLFL,3.47 kcal/mol
15,TKAQVIEAFKVFDRDGNGYVTVDYLRKVLNLLGDMMPADEIEEMIYEADPQNSGYVQYETFVGMLFL,3.81 kcal/mol
16,TKAQVIEAFKVFDRDGNGYVTVDYLRKVLNFLGDMMPADEIEEMIYEADPQNSGYVQYETFVGMLFL,3.53 kcal/mol
17,TKAQVIEAFKVFDRDGNGYVTVDYLRKVLNSLGDMMPADEIEEMIYEADPQNSGYVQYETFVGMLFL,3.64 kcal/mol
18,TKAQVIEAFKVFDRDGNGYVTVDYLRKVLNCLGDMMPADEIEEMIYEADPQNSGYVQYETFVGMLFL,3.41 kcal/mol
19,TKAQVIEAFKVFDRDGNGYVTVDYLRKVLNGLGDMMPADEIEEMIYEADPQNSGYVQYETFVGMLFL,3.4 kcal/mol
20,TKAQVIEAFKVFDRDGNGYVTVDYLRKVLNEQGDMMPADEIEEMIYEADPQNSGYVQYETFVGMLFL,2.62 kcal/mol
21,TKAQVIEAFKVFDRDGNGYVTVDYLRKVLNEHGDMMPADEIEEMIYEADPQNSGYVQYETFVGMLFL,2.96 kcal/mol
22,TKAQVIEAFKVFDRDGNGYVTVDYLRKVLNEIGDMMPADEIEEMIYEADPQNSGYVQYETFVGMLFL,3.52 kcal/mol
23,TKAQVIEAFKVFDRDGNGYVTVDYLRKVLNEPGDMMPADEIEEMIYEADPQNSGYVQYETFVGMLFL,1.83 kcal/mol
24,TKAQVIEAFKVFDRDGNGYVTVDYLRKVLNETGDMMPADEIEEMIYEADPQNSGYVQYETFVGMLFL,2.55 kcal/mol
25,TKAQVIEAFKVFDRDGNGYVTVDYLRKVLNEEGDMMPADEIEEMIYEADPQNSGYVQYETFVGMLFL,2.04 kcal/mol
26,TKAQVIEAFKVFDRDGNGYVTVDYLRKVLNECGDMMPADEIEEMIYEADPQNSGYVQYETFVGMLFL,2.76 kcal/mol
27,TKAQVIEAFKVFDRDGNGYVTVDYLRKVLNEYGDMMPADEIEEMIYEADPQNSGYVQYETFVGMLFL,3.28 kcal/mol

row,Variant,folding stability dG
1,TKAQVIEAFKVFDRDGNGYVTVDYLRKVLNEKGDMMPADEIEEMIYEADPQNSGYVQYETFVGMLFL,2.5 kcal/mol
2,TKAQVIEAFKVFDRDGNGYVTVDYLRKVLNERGDMMPADEIEEMIYEADPQNSGYVQYETFVGMLFL,2.6 kcal/mol
3,TKAQVIEAFKVFDRDGNGYVTVDYLRKVLNEWGDMMPADEIEEMIYEADPQNSGYVQYETFVGMLFL,3.33 kcal/mol
4,TKAQVIEAFKVFDRDGNGYVTVDYLRKVLNEMGDMMPADEIEEMIYEADPQNSGYVQYETFVGMLFL,3.21 kcal/mol
5,TKAQVIEAFKVFDRDGNGYVTVDYLRKVLNEFGDMMPADEIEEMIYEADPQNSGYVQYETFVGMLFL,3.66 kcal/mol
6,TKAQVIEAFKVFDRDGNGYVTVDYLRKVLNEAGDMMPADEIEEMIYEADPQNSGYVQYETFVGMLFL,2.77 kcal/mol
7,TKAQVIEAFKVFDRDGNGYVTVDYLRKVLNESGDMMPADEIEEMIYEADPQNSGYVQYETFVGMLFL,2.56 kcal/mol
8,TKAQVIEAFKVFDRDGNGYVTVDYLRKVLNEDGDMMPADEIEEMIYEADPQNSGYVQYETFVGMLFL,1.84 kcal/mol
9,TKAQVIEAFKVFDRDGNGYVTVDYLRKVLNEGGDMMPADEIEEMIYEADPQNSGYVQYETFVGMLFL,2.16 kcal/mol
10,TKAQVIEAFKVFDRDGNGYVTVDYLRKVLNEVGDMMPADEIEEMIYEADPQNSGYVQYETFVGMLFL,3.26 kcal/mol
11,TKAQVIEAFKVFDRDGNGYVTVDYLRKVLNENGDMMPADEIEEMIYEADPQNSGYVQYETFVGMLFL,2.53 kcal/mol
12,TKAQVIEAFKVFDRDGNGYVTVDYLRKVLNELIDMMPADEIEEMIYEADPQNSGYVQYETFVGMLFL,4.07 kcal/mol
13,TKAQVIEAFKVFDRDGNGYVTVDYLRKVLNELRDMMPADEIEEMIYEADPQNSGYVQYETFVGMLFL,3.51 kcal/mol
14,TKAQVIEAFKVFDRDGNGYVTVDYLRKVLNELWDMMPADEIEEMIYEADPQNSGYVQYETFVGMLFL,3.55 kcal/mol
15,TKAQVIEAFKVFDRDGNGYVTVDYLRKVLNELEDMMPADEIEEMIYEADPQNSGYVQYETFVGMLFL,3.48 kcal/mol
16,TKAQVIEAFKVFDRDGNGYVTVDYLRKVLNELSDMMPADEIEEMIYEADPQNSGYVQYETFVGMLFL,3.28 kcal/mol
17,TKAQVIEAFKVFDRDGNGYVTVDYLRKVLNELNDMMPADEIEEMIYEADPQNSGYVQYETFVGMLFL,3.18 kcal/mol
18,TKAQVIEAFKVFDRDGNGYVTVDYLRKVLNELMDMMPADEIEEMIYEADPQNSGYVQYETFVGMLFL,4.14 kcal/mol
19,TKAQVIEAFKVFDRDGNGYVTVDYLRKVLNELCDMMPADEIEEMIYEADPQNSGYVQYETFVGMLFL,3.87 kcal/mol
20,TKAQVIEAFKVFDRDGNGYVTVDYLRKVLNELTDMMPADEIEEMIYEADPQNSGYVQYETFVGMLFL,3.81 kcal/mol
21,TKAQVIEAFKVFDRDGNGYVTVDYLRKVLNELPDMMPADEIEEMIYEADPQNSGYVQYETFVGMLFL,3.54 kcal/mol
22,TKAQVIEAFKVFDRDGNGYVTVDYLRKVLNELDDMMPADEIEEMIYEADPQNSGYVQYETFVGMLFL,3.25 kcal/mol
23,TKAQVIEAFKVFDRDGNGYVTVDYLRKVLNELVDMMPADEIEEMIYEADPQNSGYVQYETFVGMLFL,3.83 kcal/mol
24,TKAQVIEAFKVFDRDGNGYVTVDYLRKVLNELFDMMPADEIEEMIYEADPQNSGYVQYETFVGMLFL,3.94 kcal/mol
25,TKAQVIEAFKVFDRDGNGYVTVDYLRKVLNELADMMPADEIEEMIYEADPQNSGYVQYETFVGMLFL,3.79 kcal/mol
26,TKAQVIEAFKVFDRDGNGYVTVDYLRKVLNELLDMMPADEIEEMIYEADPQNSGYVQYETFVGMLFL,3.89 kcal/mol
27,TKAQVIEAFKVFDRDGNGYVTVDYLRKVLNELKDMMPADEIEEMIYEADPQNSGYVQYETFVGMLFL,3.46 kcal/mol

row,Variant,folding stability dG
1,TKAQVIEAFKVFDRDGNGYVTVDYLRKVLNELHDMMPADEIEEMIYEADPQNSGYVQYETFVGMLFL,3.25 kcal/mol
2,TKAQVIEAFKVFDRDGNGYVTVDYLRKVLNELQDMMPADEIEEMIYEADPQNSGYVQYETFVGMLFL,3.37 kcal/mol
3,TKAQVIEAFKVFDRDGNGYVTVDYLRKVTNELGDMMPADEIEEMIYEADPQNSGYVQYETFVGMLFL,2.46 kcal/mol
4,TKAQVIEAFKVFDRDGNGYVTVDYLRKVSNELGDMMPADEIEEMIYEADPQNSGYVQYETFVGMLFL,2.06 kcal/mol
5,TKAQVIEAFKVFDRDGNGYVTVDYLRKVYNELGDMMPADEIEEMIYEADPQNSGYVQYETFVGMLFL,2.22 kcal/mol
6,TKAQVIEAFKVFDRDGNGYVTVDYLRKVVNELGDMMPADEIEEMIYEADPQNSGYVQYETFVGMLFL,3.28 kcal/mol
7,TKAQVIEAFKVFDRDGNGYVTVDYLRKVWNELGDMMPADEIEEMIYEADPQNSGYVQYETFVGMLFL,2.91 kcal/mol
8,TKAQVIEAFKVFDRDGNGYVTVDYLRKVLIELGDMMPADEIEEMIYEADPQNSGYVQYETFVGMLFL,3.36 kcal/mol
9,TKAQVIEAFKVFDRDGNGYVTVDYLRKVLFELGDMMPADEIEEMIYEADPQNSGYVQYETFVGMLFL,3.65 kcal/mol
10,TKAQVIEAFKVFDRDGNGYVTVDYLRKVLVELGDMMPADEIEEMIYEADPQNSGYVQYETFVGMLFL,3.38 kcal/mol
11,TKAQVIEAFKVFDRDGNGYVTVDYLRKVLYELGDMMPADEIEEMIYEADPQNSGYVQYETFVGMLFL,3.57 kcal/mol
12,TKAQVIEAFKVFDRDGNGYVTVDYLRKVLSELGDMMPADEIEEMIYEADPQNSGYVQYETFVGMLFL,3.63 kcal/mol
13,TKAQVIEAFKVFDRDGNGYVTVDYLRKVLAELGDMMPADEIEEMIYEADPQNSGYVQYETFVGMLFL,3.62 kcal/mol
14,TKAQVIEAFKVFDRDGNGYVTVDYLRKVLGELGDMMPADEIEEMIYEADPQNSGYVQYETFVGMLFL,3.6 kcal/mol
15,TKAQVIEAFKVFDRDGNGYVTVDYLRKVLRELGDMMPADEIEEMIYEADPQNSGYVQYETFVGMLFL,3.54 kcal/mol
16,TKAQVIEAFKVFDRDGNGYVTVDYLRKVLLELGDMMPADEIEEMIYEADPQNSGYVQYETFVGMLFL,3.64 kcal/mol
17,TKAQVIEAFKVFDRDGNGYVTVDYLRKVLPELGDMMPADEIEEMIYEADPQNSGYVQYETFVGMLFL,2.6 kcal/mol
18,TKAQVIEAFKVFDRDGNGYVTVDYLRKVLKELGDMMPADEIEEMIYEADPQNSGYVQYETFVGMLFL,3.59 kcal/mol
19,TKAQVIEAFKVFDRDGNGYVTVDYLRKVLMELGDMMPADEIEEMIYEADPQNSGYVQYETFVGMLFL,3.63 kcal/mol
20,TKAQVIEAFKVFDRDGNGYVTVDYLRKVLQELGDMMPADEIEEMIYEADPQNSGYVQYETFVGMLFL,3.4 kcal/mol
21,TKAQVIEAFKVFDRDGNGYVTVDYLRKVLEELGDMMPADEIEEMIYEADPQNSGYVQYETFVGMLFL,3.4 kcal/mol
22,TKAQVIEAFKVFDRDGNGYVTVDYLRKVLCELGDMMPADEIEEMIYEADPQNSGYVQYETFVGMLFL,3.37 kcal/mol
23,TKAQVIEAFKVFDRDGNGYVTVDYLRKVLWELGDMMPADEIEEMIYEADPQNSGYVQYETFVGMLFL,3.71 kcal/mol
24,TKAQVIEAFKVFDRDGNGYVTVDYLRKVLDELGDMMPADEIEEMIYEADPQNSGYVQYETFVGMLFL,3.72 kcal/mol
25,TKAQVIEAFKVFDRDGNGYVTVDYLRKVLHELGDMMPADEIEEMIYEADPQNSGYVQYETFVGMLFL,3.52 kcal/mol
26,TKAQVIEAFKVFDRDGNGYVTVDYLRKVLTELGDMMPADEIEEMIYEADPQNSGYVQYETFVGMLFL,3.44 kcal/mol
